Reference: publication PMC6057269 (2018)

B1: GST-tagged FCHSD2 SH3-2 (aa568-629), wild type [human] / ITSN1 SH3d (aa1076-1138), recombinant [human] (parent complex)
chain 1: SVCFVKALYDYEGQTDDELSFPEGAIIRILNKENQDDDGFWEGEFNGRIGVFPSVLVEELSA
chain 2: PEIAQVIASYTATGPEQLTLAPGQLILIRKKNPGGWWEGELQARGKKRQIGWFPANYVKLLSP
B2: GST-tagged ITSN1 SH3d (aa1076-1138), wild type [human] / FCHSD2 SH3-2 (aa568-629), recombinant [human] (parent complex)
chain 1: B1 chain 2
chain 2: B1 chain 1

Variants of: B1
Test: GST pull-down, Coomassie stained gel, band quantification; n = 3 experiments, mean ± SD; parent: 1; read off a plot

| Variant | ratio to parent |
| --- | --- |
| chain 1 F40S | ~0.3 |
| chain 1 V55K, chain 1 L56K | ~0.1 |
| chain 1 V55S | ~0.8 |
| chain 1 D17K | ~0.9 |
| chain 1 Y9S | ~0.45 |
| chain 1 Y9S, chain 1 F40S | ~0.15 |
| chain 1 D16A | ~1.1 |
| chain 1 N46A | ~1.2 |

Variants of: B2
Test: as above

| Variant | ratio to parent |
| --- | --- |
| chain 1 R44E | ~0.08 |
| chain 1 R48E | ~0.4 |
| chain 1 T11A | ~1.1 |
| chain 1 I3K | ~0.08 |
| chain 1 I3S | ~0.08 |
| chain 1 R44A | ~0.08 |
